Literature values in publication doi:10.1101/2025.05.21.655333.

Biological target: Lys287 (UniProt position 287, GGQGLKILIHV)
Assay: kinetics
Conditions: The kcat/Km profile reports on free enzyme and free substrate

L-6-hydroxynicotine oxidase (Pyridine-LHNO) (Paenarthrobacter nicotinovorans)
pKa: 9.7
